Data taken from patent publication CN111110862A.
Blank lines part the entries; values can stand above or below the binder they belong to.

Assays:
[1] = target: 人CLDN18.2(hCLDN18.2) (human) (UniProt P56856); assay: cell ELISA on fixed hCLDN18.2+cell, plateau reading
[2] = target: 人CLDN18.2(hCLDN18.2) (human) (UniProt P56856); assay: cell ELISA on fixed hCLDN18.2+cell
[3] = target: 人CLDN18.2(hCLDN18.2) (human) (UniProt P56856); assay: cell ELISA, hybridoma supernatant on hCLDN18.2+cell

- Emax [1]: 1.92
- EC50 [2]: 0.115 nM
- Emax higher than Ref [2]: > 36%
- fold better binding (EC50) than Ref [2]: > 1 fold
B1: anti-hCLDN18.2鼠源抗体mab5b (antibody, human IgG1, kappa, V domains shown)
VH: QVQLQQSGAELIGPGTSVKVSCKASGYAFSNYLIEWVKQRPEQGLEWIGLINPGSGGTNYNEKFKGKATLTADKSSSTAYMQLSSLTSDDSAVYFCARVYYGNSFAYWGQGTLVTVSA
VL: DIVMTQSPSSLTVTAGEKVTMSCKSSQSLLNSGNQKNYLTWYQQKPGQPPKLLIYWASTRESGVPDRFTGSGSGTHFTLTISSVQAEDLAVYYCQNDYFYPFTFGSGTKLEKKR

- ELISA读值 [3]: 0.889
B2: 杂交瘤单克隆细胞株C13C1F1D3G6所分泌的抗体 (antibody, V domains shown)
VH: B1 VH
VL: DIVMTQSPSSLTVTAGEKVTMSCKSSQSLLNSGNQKNYLTWYQQKPGQPPKLLIYWASTRESGVPDRFTGSGSGTHFTLTISSVQAEDLAVYYCQNDYFYPFTFGSGTKLEKK
